These results are taken from paper PMC8104411, “The structure of MgtE in the absence of magnesium provides new insights into channel gating” (PLoS Biology, 2021).

The term Kd denotes a measure of binding affinity in units of concentration. Low readings indicate a tighter complex, high ones a looser complex. As usually defined, the stoichiometry N is the number of molecules, sites or subunits per partner or assembly.

Series [1] has as its target T1, full-length MgtE from Thermus thermophilus (Thermus thermophilus HB8 (ATCC 27634 / …, UniProt Q5SMG8)).
T1 construct: Mg2+ channel MgtE, Thermus thermophilus, full length; homodimer; In DDM micelles for ITC; source: E. coli C41 (DE3), purified (DDM solubilisation, Ni-NTA, HRV3C cleavage, SEC); not shown: His6, N-terminal, cleaved
Briefly: ITC; Fab705 (25 uM) injected into the cell with full-length MgtE (about 2.5 uM monomer); 25°C; 20 mM HEPES pH 7.0, 150 mM NaCl, 0.05% DDM, 0 mM MgCl2; three repeats listed one by one. The settings on record: both partners purified. In general terms: ITC needs no label: the signal is the heat of the interaction.

The target in series [2] is T2, full-length Thermus thermophilus MgtE (Thermus thermophilus, UniProt Q5SMG8).
T2 construct: MgtE Mg2+ channel, Thermus thermophilus, full-length gene in a pET28a-derived vector with an N-terminal hexahistidine tag and an HRV3C site; the cryo-EM model holds only residues 271 to 448 (TM domain); Homodimer; also called wild-type MgtE; WT MgtE; source: E. coli C41 (DE3), purified (Ni-NTA, SEC) in DDM; for cryo-EM reconstituted in PMAL-C8 amphipol; not shown: His6, N-terminal, cleaved
In words: ITC; Fab705 (25 uM) injected into full-length MgtE (about 2.5 uM monomer) in the cell; 25°C; 20 mM HEPES pH 7.0, 150 mM NaCl, 0.05% DDM, 0 mM MgCl2. To be noted: both partners purified.

Series [3] deals with the molecule itself. Briefly: cryo-EM structure; full-length MgtE-Fab705 complex in PMAL-C8 amphipol, no Mg2+ or other divalent cations; 3.7 Å, C2 symmetry imposed.
Series [4] concerns the molecule itself. Briefly: cross-linking; disulfide cross-linking with Cu2+ bis-1,10-phenanthroline, 0.5 mg/ml MgtE mutant in 20 mM HEPES pH 7.0, 150 mM NaCl, 0.05% DDM, MgCl2 gradient (0.01 to 30 mM), 4°C, non-reducing SDS-PAGE.

Positions count from the first letter of the chain named. Numbers in names are those of the source. Where “and” joins values, the source holds several entries; their conditions need not be identical. Identical values can stand only once.

B1: Fab705 (Fab, V domains shown)
VH: EVKLQESGVELVKPGASVKISCKASGYSFTGYNMNWVKQSHGKSLEWIGNISPYYGTSIYNQNFKGKATLTVDRSSSTAYMQLNSLTSEDSAVYYCARGESFSNYEGYYAMDYWGQGTSVIVSS
VL: DVLMTQTPLSLPVSLGDQASISCRSSQSLVHSDGNTYLHWYLQKPGQSPKLLIYKVSNRFSGVPDRFSGSGSGTDFTLKISRVEAEDLGVYFCSQSTHVPWTFGGGTKLEIK
notes: heavy chain of Fab YN0705; in the deposited MgtE-Fab structure PDB 6LBH; light chain of Fab YN0705; Fab made by papain digestion of the mouse monoclonal IgG YN0705 raised against MgtE proteoliposomes; also called Fab YN0705; Fab antibody fragment Fab705; source: mouse hybridoma culture supernatant; IgG purified by protein G, digested with papain, Fab isolated by gel filtration and protein A …
Regarding B1, in series [1], the Kd is 187 nM and 164 nM; the “stoichiometry N” value is 0.89 and 0.9 and 0.83.

B2: Fab antibody fragment Fab705 (Fab, V domains shown)
VH: B1 VH
VL: B1 VL
notes: heavy chain of the mouse Fab YN0705; light chain of the mouse Fab YN0705; Fab made by papain digestion of the mouse monoclonal IgG YN0705 raised against MgtE proteoliposomes; also called Fab YN0705; YN0705; source: mouse hybridoma culture supernatant; IgG purified by protein G, digested with papain, Fab isolated by gel filtration and protein A chromatography
B2 gave a Kd in series [2] of 216 ± 52.7 nM.

B3: full-length Thermus thermophilus MgtE (natural protein, UniProt Q5SMG8 1-450, looked up)
chain: MEEKLAVSLQEALQEGDTRALREVLEEIHPQDLLALWDELKGEHRYVVLTLLPKAKAAEVLSHLSPEEQAEYLKTLPPWRLREILEELSLDDLADALQAVRKEDPAYFQRLKDLLDPRTRAEVEALARYEEDEAGGLMTPEYVAVREGMTVEEVLRFLRRAAPDAETIYYIYVVDEKGRLKGVLSLRDLIVADPRTRVAEIMNPKVVYVRTDTDQEEVARLMADYDFTVLPVVDEEGRLVGIVTVDDVLDVLEAEATEDIHKLGAVDVPDLVYSEAGPVALWLARVRWLVILILTGMVTSSILQGFESVLEAVTALAFYVPVLLGTGGNTGNQSATLIIRALATRDLDLRDWRRVFLKEMGVGLLLGLTLSFLLVGKVYWDGHPLLLPVVGVSLVLIVFFANLVGAMLPFLLRRLGVDPALVSNPLVATLSDVTGLLIYLSVARLLLEAV
notes: MgtE Mg2+ channel, Thermus thermophilus, full-length gene in a pET28a-derived vector with an N-terminal hexahistidine tag and an HRV3C site; the cryo-EM model holds only residues 271 to 448 (TM domain); Homodimer; also called wild-type MgtE; WT MgtE; source: E. coli C41 (DE3), purified (Ni-NTA, SEC) in DDM; for cryo-EM reconstituted in PMAL-C8 amphipol; not shown: His6, N-terminal, cleaved
Regarding B3, in series [3], the “stoichiometry N” value came to 2.

B4: MgtE double cysteine mutant T336C/L421C (natural protein, Thermus thermophilus, UniProt Q5SMG8 1-450, looked up)
chain: B3 chain with T336C, L421C
notes: MgtE Mg2+ channel, Thermus thermophilus, with two cysteine substitutions; wild-type MgtE has no endogenous cysteine; source: E. coli C41 (DE3), purified as the wild type, with 20 mM DTT added before its removal by SEC; not shown: His6, N-terminal, cleaved
On to B4, for which the binding result in series [4] was “binds”.
